Measurements: paper PMC12866175 (European journal of nuclear medicine and molecular imaging, 2021)

Assay: Radiation dosimetry and clearance kinetics from biodistribution data
Format: in vivo, BALB/c mice

Compound: C[C@@H](O)[C@H](NC(=O)[C@@H]1CSSC[C@H](NC(=O)[C@@H](Cc2ccccc2)NC(=O)CN2CCN(CC(=O)O)CCN(CC(=O)O)CCN(CC(=O)O)CC2)C(=O)N[C@@H](Cc2ccc(O)cc2)C(=O)N[C@H](Cc2c[nH]c3ccccc23)C(=O)N[C@@H](CCCCN)C(=O)N[C@@H]([C@@H](C)O)C(=O)N1)C(=O)O [[^225Ac]Ac-DOTA-TATE, metal not drawn]
- Absorbed dose/injected activity (^213Bi, Blood): 0.0000 Gy/kBq
- Accumulated activity/organ, A~ (^213Bi, Blood): 0.2345 kBq×h
- Decay rate constant, λeff (^213Bi, Blood): 0.011 h⁻¹
- Initial activity/organ, A○ (^213Bi, Blood): 0.0042 kBq
- Absorbed dose/injected activity (^213Bi, Bone): 0.0000 Gy/kBq
- Accumulated activity/organ, A~ (^213Bi, Bone): 0.9591 kBq×h
- Decay rate constant, λeff (^213Bi, Bone): 0.0070 h⁻¹
- Initial activity/organ, A○ (^213Bi, Bone): 0.0125 kBq
- Absorbed dose/injected activity (^213Bi, Brain): 0.0000 Gy/kBq
- Accumulated activity/organ, A~ (^213Bi, Brain): 0.4653 kBq×h
- Decay rate constant, λeff (^213Bi, Brain): 0.0080 h⁻¹
- Initial activity/organ, A○ (^213Bi, Brain): 0.0066 kBq
- Absorbed dose/injected activity (^213Bi, Heart): 0.0000 Gy/kBq
- Accumulated activity/organ, A~ (^213Bi, Heart): 0.5789 kBq×h
- Decay rate constant, λeff (^213Bi, Heart): 0.0030 h⁻¹
- Initial activity/organ, A○ (^213Bi, Heart): 0.0053 kBq
- Absorbed dose/injected activity (^213Bi, Intestine): 0.0000 Gy/kBq
- Accumulated activity/organ, A~ (^213Bi, Intestine): 3.6681 kBq×h
- Decay rate constant, λeff (^213Bi, Intestine): 0.0210 h⁻¹
- Initial activity/organ, A○ (^213Bi, Intestine): 0.1340 kBq
- Absorbed dose/injected activity (^213Bi, Kidney): 0.0000 Gy/kBq
- Accumulated activity/organ, A~ (^213Bi, Kidney): 7.7700 kBq×h
- Decay rate constant, λeff (^213Bi, Kidney): 0.0250 h⁻¹
- Initial activity/organ, A○ (^213Bi, Kidney): 0.3639 kBq
- Absorbed dose/injected activity (^213Bi, Liver): 0.0000 Gy/kBq
- Accumulated activity/organ, A~ (^213Bi, Liver): 28.7854 kBq×h
- Decay rate constant, λeff (^213Bi, Liver): -0.0073 h⁻¹
- Initial activity/organ, A○ (^213Bi, Liver): 0.0948 kBq
- Absorbed dose/injected activity (^213Bi, Lung): 0.0000 Gy/kBq
- Accumulated activity/organ, A~ (^213Bi, Lung): 0.9636 kBq×h
- Decay rate constant, λeff (^213Bi, Lung): 0.0170 h⁻¹
- Initial activity/organ, A○ (^213Bi, Lung): 0.0270 kBq
- Absorbed dose/injected activity (^213Bi, Muscle): 0.0000 Gy/kBq
- Accumulated activity/organ, A~ (^213Bi, Muscle): 0.3058 kBq×h
- Decay rate constant, λeff (^213Bi, Muscle): 0.0050 h⁻¹
- Initial activity/organ, A○ (^213Bi, Muscle): 0.0034 kBq
- Absorbed dose/injected activity (^213Bi, Pancreas): 0.0000 Gy/kBq
- Accumulated activity/organ, A~ (^213Bi, Pancreas): 0.5253 kBq×h
- Decay rate constant, λeff (^213Bi, Pancreas): 0.0140 h⁻¹
- Initial activity/organ, A○ (^213Bi, Pancreas): 0.0119 kBq
- Absorbed dose/injected activity (^213Bi, Salivary): 0.000 Gy/kBq
- Accumulated activity/organ, A~ (^213Bi, Salivary): 0.6047 kBq×h
- Decay rate constant, λeff (^213Bi, Salivary): 0.0030 h⁻¹
- Initial activity/organ, A○ (^213Bi, Salivary): 0.0056 kBq
- Absorbed dose/injected activity (^213Bi, Skin): 0.000 Gy/kBq
- Accumulated activity/organ, A~ (^213Bi, Skin): 0.5575 kBq×h
- Decay rate constant, λeff (^213Bi, Skin): 0.0040 h⁻¹
- Initial activity/organ, A○ (^213Bi, Skin): 0.0056 kBq
- Absorbed dose/injected activity (^213Bi, Spleen): 0.0000 Gy/kBq
- Accumulated activity/organ, A~ (^213Bi, Spleen): 1.2470 kBq×h
- Decay rate constant, λeff (^213Bi, Spleen): -0.0024 h⁻¹
- Initial activity/organ, A○ (^213Bi, Spleen): 0.0068 kBq
- Absorbed dose/injected activity (^213Bi, Stomach): 0.0000 Gy/kBq
- Accumulated activity/organ, A~ (^213Bi, Stomach): 2.4230 kBq×h
- Decay rate constant, λeff (^213Bi, Stomach): 0.0190 h⁻¹
- Initial activity/organ, A○ (^213Bi, Stomach): 0.0777 kBq
- Absorbed dose/injected activity (^213Po, Blood): 0.0000 Gy/kBq
- Accumulated activity/organ, A~ (^213Po, Blood): 0.2345 kBq×h
- Decay rate constant, λeff (^213Po, Blood): 0.0110 h⁻¹
- Initial activity/organ, A○ (^213Po, Blood): 0.0042 kBq
- Absorbed dose/injected activity (^213Po, Bone): 0.0004 Gy/kBq
- Accumulated activity/organ, A~ (^213Po, Bone): 0.9591 kBq×h
- Decay rate constant, λeff (^213Po, Bone): 0.0070 h⁻¹
- Initial activity/organ, A○ (^213Po, Bone): 0.0125 kBq
- Absorbed dose/injected activity (^213Po, Brain): 0.0001 Gy/kBq
- Accumulated activity/organ, A~ (^213Po, Brain): 0.4653 kBq×h
- Decay rate constant, λeff (^213Po, Brain): 0.0080 h⁻¹
- Initial activity/organ, A○ (^213Po, Brain): 0.0066 kBq
- Absorbed dose/injected activity (^213Po, Heart): 0.0002 Gy/kBq
- Accumulated activity/organ, A~ (^213Po, Heart): 0.5789 kBq×h
- Decay rate constant, λeff (^213Po, Heart): 0.0030 h⁻¹
- Initial activity/organ, A○ (^213Po, Heart): 0.0053 kBq
- Absorbed dose/injected activity (^213Po, Intestine): 0.0001 Gy/kBq
- Accumulated activity/organ, A~ (^213Po, Intestine): 3.6681 kBq×h
- Decay rate constant, λeff (^213Po, Intestine): 0.0210 h⁻¹
- Initial activity/organ, A○ (^213Po, Intestine): 0.1340 kBq
- Absorbed dose/injected activity (^213Po, Kidney): 0.0015 Gy/kBq
- Accumulated activity/organ, A~ (^213Po, Kidney): 7.7700 kBq×h
- Decay rate constant, λeff (^213Po, Kidney): 0.0250 h⁻¹
- Initial activity/organ, A○ (^213Po, Kidney): 0.3639 kBq
- Absorbed dose/injected activity (^213Po, Liver): 0.0016 Gy/kBq
- Accumulated activity/organ, A~ (^213Po, Liver): 28.7854 kBq×h
- Decay rate constant, λeff (^213Po, Liver): -0.0073 h⁻¹
- Initial activity/organ, A○ (^213Po, Liver): 0.0948 kBq
- Absorbed dose/injected activity (^213Po, Lung): 0.0002 Gy/kBq
- Accumulated activity/organ, A~ (^213Po, Lung): 0.9636 kBq×h
- Decay rate constant, λeff (^213Po, Lung): 0.0170 h⁻¹
- Initial activity/organ, A○ (^213Po, Lung): 0.0270 kBq
- Absorbed dose/injected activity (^213Po, Muscle): 0.0001 Gy/kBq
- Accumulated activity/organ, A~ (^213Po, Muscle): 0.3058 kBq×h
- Decay rate constant, λeff (^213Po, Muscle): 0.0050 h⁻¹
- Initial activity/organ, A○ (^213Po, Muscle): 0.0034 kBq
- Absorbed dose/injected activity (^213Po, Pancreas): 0.0002 Gy/kBq
- Accumulated activity/organ, A~ (^213Po, Pancreas): 0.5253 kBq×h
- Decay rate constant, λeff (^213Po, Pancreas): 0.0140 h⁻¹
- Initial activity/organ, A○ (^213Po, Pancreas): 0.0119 kBq
- Absorbed dose/injected activity (^213Po, Salivary): 0.0002 Gy/kBq
- Accumulated activity/organ, A~ (^213Po, Salivary): 0.6047 kBq×h
- Decay rate constant, λeff (^213Po, Salivary): 0.0030 h⁻¹
- Initial activity/organ, A○ (^213Po, Salivary): 0.0056 kBq
- Absorbed dose/injected activity (^213Po, Skin): 0.0001 Gy/kBq
- Accumulated activity/organ, A~ (^213Po, Skin): 0.5575 kBq×h
- Decay rate constant, λeff (^213Po, Skin): 0.0040 h⁻¹
- Initial activity/organ, A○ (^213Po, Skin): 0.0056 kBq
- Absorbed dose/injected activity (^213Po, Spleen): 0.0006 Gy/kBq
- Accumulated activity/organ, A~ (^213Po, Spleen): 1.2470 kBq×h
- Decay rate constant, λeff (^213Po, Spleen): -0.0024 h⁻¹
- Initial activity/organ, A○ (^213Po, Spleen): 0.0068 kBq
- Absorbed dose/injected activity (^213Po, Stomach): 0.0005 Gy/kBq
- Accumulated activity/organ, A~ (^213Po, Stomach): 2.4230 kBq×h
- Decay rate constant, λeff (^213Po, Stomach): 0.0190 h⁻¹
- Initial activity/organ, A○ (^213Po, Stomach): 0.0777 kBq
- Absorbed dose/injected activity (^217At, Blood): 0.001 Gy/kBq
- Accumulated activity/organ, A~ (^217At, Blood): 0.5594 kBq×h
- Initial activity/organ, A○ (^217At, Blood): 0.0019 kBq
- Absorbed dose/injected activity (^217At, Bone): 0.0003 Gy/kBq
- Accumulated activity/organ, A~ (^217At, Bone): 1.0195 kBq×h
- Decay rate constant, λeff (^217At, Bone): 0.0100 h⁻¹
- Initial activity/organ, A○ (^217At, Bone): 0.0170 kBq
- Absorbed dose/injected activity (^217At, Brain): 0.0001 Gy/kBq
- Accumulated activity/organ, A~ (^217At, Brain): 0.7934 kBq×h
- Decay rate constant, λeff (^217At, Brain): -0.0044 h⁻¹
- Initial activity/organ, A○ (^217At, Brain): 0.0036 kBq
- Absorbed dose/injected activity (^217At, Heart): 0.00001 Gy/kBq
- Accumulated activity/organ, A~ (^217At, Heart): 0.2102 kBq×h
- Decay rate constant, λeff (^217At, Heart): 0.0190 h⁻¹
- Initial activity/organ, A○ (^217At, Heart): 0.0067 kBq
- Absorbed dose/injected activity (^217At, Intestine): 0.0002 Gy/kBq
- Accumulated activity/organ, A~ (^217At, Intestine): 7.2991 kBq×h
- Decay rate constant, λeff (^217At, Intestine): 0.0130 h⁻¹
- Initial activity/organ, A○ (^217At, Intestine): 0.1532 kBq
- Absorbed dose/injected activity (^217At, Kidney): 0.0021 Gy/kBq
- Accumulated activity/organ, A~ (^217At, Kidney): 12.5136 kBq×h
- Decay rate constant, λeff (^217At, Kidney): 0.0190 h⁻¹
- Initial activity/organ, A○ (^217At, Kidney): 0.4011 kBq
- Absorbed dose/injected activity (^217At, Liver): 0.0016 Gy/kBq
- Accumulated activity/organ, A~ (^217At, Liver): 32.1637 kBq×h
- Decay rate constant, λeff (^217At, Liver): -0.0033 h⁻¹
- Initial activity/organ, A○ (^217At, Liver): 0.1612 kBq
- Accumulated activity/organ, A~ (^217At, Lung): 1.7734 kBq×h
- Decay rate constant, λeff (^217At, Lung): 0.0080 h⁻¹
- Initial activity/organ, A○ (^217At, Lung): 0.251 kBq
- Absorbed dose/injected activity (^217At, Muscle): 0.00000 Gy/kBq
- Accumulated activity/organ, A~ (^217At, Muscle): 0.1848 kBq×h
- Decay rate constant, λeff (^217At, Muscle): 0.0170 h⁻¹
